PMC6469808

How the values were obtained:
[1] = biological target: Zika virus NS5 Y25A/K28S/K29A variant, full length, C-terminal 6xHis tag (Zika virus (Suriname human isolate Z1106033))
[2] = biological target: Zika virus NS5, full length, wild type (Suriname ZIKV human isolate Z1106033), C-terminal 6xHis tag (Zika virus (Suriname human isolate Z1106033)); assay: SEC-MALS; Superdex 200 10/300 GL; 50 mM MES pH 6.0, 500 mM NaCl, 10% glycerol, 5 mM DTT; monomer-dimer
[3] = biological target: Zika virus NS5, full length, wild type (Suriname ZIKV human isolate Z1106033), C-terminal 6xHis tag (Zika virus (Suriname human isolate Z1106033)); assay: SAXS; 6 mg/ml NS5 (highest concentration); 50 mM MES pH 6.0, 500 mM NaCl, 10% glycerol, 5 mM DTT; 10 °C
[4] = biological target: Zika virus NS5, full length, wild type (Suriname ZIKV human isolate Z1106033), C-terminal 6xHis tag (Zika virus (Suriname human isolate Z1106033)); assay: SEC-MALS; Superdex 200 10/300 GL; 50 mM HEPES pH 7.0, 500 mM NaCl, 10% glycerol, 5 mM DTT; monomer-dimer
[5] = biological target: Zika virus NS5, full length, wild type (Suriname ZIKV human isolate Z1106033), C-terminal 6xHis tag (Zika virus (Suriname human isolate Z1106033)); assay: AUC; sedimentation velocity, 20 °C, 43,000 rpm, 0.5 mg/ml protein; 50 mM HEPES pH 7.0, 500 mM NaCl, 5% glycerol, 0.4 mM DTT

| Substance | RNA primer extension (polymerase elongation) activity at 900, 180, 18, 9 nM enzyme, variant against wild type NS5 [1] [fold] | percent of the sample mass in the dimer peak [2] [%] | stoichiometry N [2] | stoichiometry N [3] | percent abundance of the dimer peak [4] [%] | stoichiometry N [4] | percent abundance of the dimer species [5] [%] | percent of the sample as oligomer [5] [%] | stoichiometry N [5] |
| --- | --- | --- | --- | --- | --- | --- | --- | --- | --- |
| Zika virus NS5 Y25A/K28S/K29A variant, full length, C-terminal 6xHis tag (natural protein) | 3 |  |  |  |  |  |  |  |  |
| Zika virus NS5, full length, wild type (Suriname ZIKV human isolate Z1106033), C-terminal 6xHis tag (from UniProt A0A024B7W1 2521-3423) (natural protein) |  | 4 | 2 | 2 | 10.4 | 2 | 12 | 5.1 | 2 |
